Data taken from article PMC10539301, “Structure of the human ATAD2 AAA+ histone chaperone reveals mechanism of regulation and inter-subunit communication” (Communications Biology, 2023).

Assays:
[1] = target: the molecule itself; test: SEC + native gel or EMSA + other: negative stain electron microscopy; purified ATAD2 (aa 403-1390) variants; wild type in the absence and presence of ATP; Supplementary Fig. 1
[2] = target: the molecule itself; test: cryo-EM structure; ATAD2 Walker B mutant and refolded H3/H4 or H3/H4K5Q mixed 1:1.5 in 150 mM NaCl, cross-linked with 1 mM DSS, purified on a 10-30% sucrose gradient; vitrified at 1.2 mg/mL with 1 mM Mg-ATP; classes I-III at 3.8, 4.3, 4.3 Å
[3] = target: Histone H3 (X. laevis, recombinant) (X. laevis, UniProt P84233 1-136); test: cross-linking; DSS 1 mM, 30 min, 37 °C, in 25 mM HEPES pH 7.5, 150 mM NaCl, 5% glycerol, 1 mM DTT; sucrose gradient fraction of hexameric ATAD2; cross-links found by mass spectrometry (XL-MS); conditions: both partners purified
[4] = target: Histone H4 (X. laevis, recombinant) (X. laevis, UniProt P62799 1-103); test: as above; conditions: both partners purified
[5] = target: T1, Histone H3/H4 complex (X. laevis, wild type, refolded) (X. laevis, UniProt P84233 1-136; P62799 1-103); test: as above; conditions: both partners purified
T1 construct: It was pooled as the H3/H4 tetramer in 2 M NaCl and diluted to 150 mM NaCl before mixing; also called wild type H3/H4

| Binder | binding result [1] | stoichiometry N [2] | binding result [3] | binding result [4] | binding result [5] |
| --- | --- | --- | --- | --- | --- |
| N-terminally truncated ATAD2 (aa 403-1390), wild type (domain or fragment, human, UniProt Q6PL18 403-1390, looked up, ATAD2 (ATPase family AAA domain-containing 2), human, aa 403-1390, from a codon-optimized synthetic full-length gene (Genscript); The vector has a Tev protease site after the 3xFlag tag; No cleavage step is described in the purification; also called wild type ATAD2) DRMKIGASLADVDPMQLDSSVRFDSVGGLSNHIAALKEMVVFPLLYPEVFEKFKIQPPRGCLFYGPPGTGKTLVARALANECSQGDKRVAFFMRKGADCLSKWVGESERQLRLLFDQAYQMRPSIIFFDEIDGLAPVRSSRQDQIHSSIVSTLLALMDGLDSRGEIVVIGATNRLDSIDPALRRPGRFDREFLFSLPDKEARKEILKIHTRDWNPKPLDTFLEELAENCVGYCGADIKSICAEAALCALRRRYPQIYTTSEKLQLDLSSINISAKDFEVAMQKMIPASQRAVTSPGQALSTVVKPLLQNTVDKILEALQRVFPHAEFRTNKTLDSDISCPLLESDLAYSDDDVPSVYENGLSQKSSHKAKDNFNFLHLNRNACYQPMSFRPRILIVGEPGFGQGSHLAPAVIHALEKFTVYTLDIPVLFGVSTTSPEETCAQVIREAKRTAPSIVYVPHIHVWWEIVGPTLKATFTTLLQNIPSFAPVLLLATSDKPHSALPEEVQELFIRDYGEIFNVQLPDKEERTKFFEDLILKQAAKPPISKKKAVLQALEVLPVAPPPEPRSLTAEEVKRLEEQEEDTFRELRIFLRNVTHRLAIDKRFRVFTKPVDPDEVPDYVTVIKQPMDLSSVISKIDLHKYLTVKDYLRDIDLICSNALEYNPDRDPGDRLIRHRACALRDTAYAIIKEELDEDFEQLCEEIQESRKKRGCSSSKYAPSYYHVMPKQNSTLVGDKRSDPEQNEKLKTPSTPVACSTPAQLKRKIRKKSNWYLGTIKKRRKISQAKDDSQNAIDHKIESDTEETQDTSVDHNETGNTGESSVEENEKQQNASESKLELRNNSNTCNIENELEDSRKTTACTELRDKIACNGDASSSQIIHISDENEGKEMCVLRMTRARRSQVEQQQLITVEKALAILSQPTPSLVVDHERLKNLLKTVVKKSQNYNIFQLENLYAVISQCIYRHRKDHDKTSLIQKMEQEVENFSCSR | binds |  |  |  |  |
| ATAD2 LD/Walker B triple mutant (D415A/E532Q/R540A), aa 403-1390 (domain or fragment, human, UniProt Q6PL18 403-1390, looked up, ATAD2, human, aa 403-1390, with D415A, E532Q and R540A; source: SF9 cells (baculovirus), purified) DRMKIGASLADVAPMQLDSSVRFDSVGGLSNHIAALKEMVVFPLLYPEVFEKFKIQPPRGCLFYGPPGTGKTLVARALANECSQGDKRVAFFMRKGADCLSKWVGESERQLRLLFDQAYQMRPSIIFFDQIDGLAPVASSRQDQIHSSIVSTLLALMDGLDSRGEIVVIGATNRLDSIDPALRRPGRFDREFLFSLPDKEARKEILKIHTRDWNPKPLDTFLEELAENCVGYCGADIKSICAEAALCALRRRYPQIYTTSEKLQLDLSSINISAKDFEVAMQKMIPASQRAVTSPGQALSTVVKPLLQNTVDKILEALQRVFPHAEFRTNKTLDSDISCPLLESDLAYSDDDVPSVYENGLSQKSSHKAKDNFNFLHLNRNACYQPMSFRPRILIVGEPGFGQGSHLAPAVIHALEKFTVYTLDIPVLFGVSTTSPEETCAQVIREAKRTAPSIVYVPHIHVWWEIVGPTLKATFTTLLQNIPSFAPVLLLATSDKPHSALPEEVQELFIRDYGEIFNVQLPDKEERTKFFEDLILKQAAKPPISKKKAVLQALEVLPVAPPPEPRSLTAEEVKRLEEQEEDTFRELRIFLRNVTHRLAIDKRFRVFTKPVDPDEVPDYVTVIKQPMDLSSVISKIDLHKYLTVKDYLRDIDLICSNALEYNPDRDPGDRLIRHRACALRDTAYAIIKEELDEDFEQLCEEIQESRKKRGCSSSKYAPSYYHVMPKQNSTLVGDKRSDPEQNEKLKTPSTPVACSTPAQLKRKIRKKSNWYLGTIKKRRKISQAKDDSQNAIDHKIESDTEETQDTSVDHNETGNTGESSVEENEKQQNASESKLELRNNSNTCNIENELEDSRKTTACTELRDKIACNGDASSSQIIHISDENEGKEMCVLRMTRARRSQVEQQQLITVEKALAILSQPTPSLVVDHERLKNLLKTVVKKSQNYNIFQLENLYAVISQCIYRHRKDHDKTSLIQKMEQEVENFSCSR | binds |  |  |  |  |
| ATAD2 Walker B mutant (E532Q), aa 403-1390 (domain or fragment, human, UniProt Q6PL18 403-1390, looked up, ATAD2 (ATPase family AAA domain-containing 2), human, aa 403-1390, Walker B mutation E532Q; A Tev site follows the tag, and no cleavage step is described; also called ATAD2 (in the structure sections); not shown: 3xFlag, N-terminal, kept) DRMKIGASLADVDPMQLDSSVRFDSVGGLSNHIAALKEMVVFPLLYPEVFEKFKIQPPRGCLFYGPPGTGKTLVARALANECSQGDKRVAFFMRKGADCLSKWVGESERQLRLLFDQAYQMRPSIIFFDQIDGLAPVRSSRQDQIHSSIVSTLLALMDGLDSRGEIVVIGATNRLDSIDPALRRPGRFDREFLFSLPDKEARKEILKIHTRDWNPKPLDTFLEELAENCVGYCGADIKSICAEAALCALRRRYPQIYTTSEKLQLDLSSINISAKDFEVAMQKMIPASQRAVTSPGQALSTVVKPLLQNTVDKILEALQRVFPHAEFRTNKTLDSDISCPLLESDLAYSDDDVPSVYENGLSQKSSHKAKDNFNFLHLNRNACYQPMSFRPRILIVGEPGFGQGSHLAPAVIHALEKFTVYTLDIPVLFGVSTTSPEETCAQVIREAKRTAPSIVYVPHIHVWWEIVGPTLKATFTTLLQNIPSFAPVLLLATSDKPHSALPEEVQELFIRDYGEIFNVQLPDKEERTKFFEDLILKQAAKPPISKKKAVLQALEVLPVAPPPEPRSLTAEEVKRLEEQEEDTFRELRIFLRNVTHRLAIDKRFRVFTKPVDPDEVPDYVTVIKQPMDLSSVISKIDLHKYLTVKDYLRDIDLICSNALEYNPDRDPGDRLIRHRACALRDTAYAIIKEELDEDFEQLCEEIQESRKKRGCSSSKYAPSYYHVMPKQNSTLVGDKRSDPEQNEKLKTPSTPVACSTPAQLKRKIRKKSNWYLGTIKKRRKISQAKDDSQNAIDHKIESDTEETQDTSVDHNETGNTGESSVEENEKQQNASESKLELRNNSNTCNIENELEDSRKTTACTELRDKIACNGDASSSQIIHISDENEGKEMCVLRMTRARRSQVEQQQLITVEKALAILSQPTPSLVVDHERLKNLLKTVVKKSQNYNIFQLENLYAVISQCIYRHRKDHDKTSLIQKMEQEVENFSCSR |  | 6 | binds | binds | binds |
